Read-outs that look alike come from different tables or passages of the source.
How the values were obtained:
[1] = molecular target: human CD3 on cells (CD3ε) (human, UniProt P07766 23-207); assay: cell-based or functional assay
[2] = molecular target: T1, Human CD3ε stalk-Fc(knob)-Avi/CD3δ stalk-Fc(hole) (human); assay: SPR on immobilized human CD3ε/δ after stress, relative to sample kept at -80°C pH 6
T1 construct: Heterodimer of CD3 delta and CD3 epsilon ectodomains fused to human Fc with knob-into-hole; also called human CD3ε/δ; CD3 antigen
Procedure, shortened: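 TCB antibodies (1.0 mg/ml) were stressed 14 days at 37° C pH 7.4 (PBS) or 40° C pH 6 (His/NaCl), referenced to -80° C pH 6 samples. On biotinylated CD3ε/δ at 25° C, 2 μg/ml was injected 30 s; response 5 s post-injection was normalized to anti-huIgG capture.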

[3] = molecular target: T1, Human CD3ε stalk-Fc(knob)-Avi/CD3δ …; assay: SPR, TCB captured by anti-PG antibody, antigen as analyte, 25°C
[4] = molecular target: T2, Cynomolgus CD3ε stalk-Fc(knob)-Avi/CD3δ stalk-Fc(hole) (cynomolgus); assay: as above
T2 construct: also called cynomolgus CD3ε/δ

[5] = molecular target: T1, Human CD3ε stalk-Fc(knob)-Avi/CD3δ …; assay: as above; remark: listed apart in the source
[6] = molecular target: T1, Human CD3ε stalk-Fc(knob)-Avi/CD3δ …; assay: SPR on immobilized human CD3ε/δ after stress, relative to sample kept at -80°C pH 6; remark: listed apart in the source
Experimental: (§1) All SPR experiments were performed on a Biacore T200 instrument (GE Healthcare) at 25° C. with HBS-P+ (10 mM HEPES, 150 mM NaCl pH 7.4, 0.05% Surfactant P20) as running and dilution buffer. Biotinylated human CD3ε/δ (see Example 3, SEQ ID NOs 41 and 42) as well as biotinylated anti-huIgG (Capture Select, Thermo Scientific, #7103262100) were immobilized on a Series S Sensor Chip SA (GE Healthcare, #29104992), resulting in surface densities of at least 1000 resonance units (RU). Anti-CD3 antibodies with a concentration of 2 μg/ml were injected for 30 s at a flow rate of 5 μl/min, and dissociation was monitored for 120 s. The surface was regenerated by injecting 10 mM glycine pH 1.5 for 60 s. Bulk refractive index differences were corrected by subtracting blank injections and by subtracting the response obtained from a blank control flow cell. For evaluation, the binding response 5 seconds after injection end was taken. To normalize the binding signal, the CD3 binding was divided by the anti-huIgG response (the signal (RU) obtained upon capture of the CD3 antibody on the immobilized anti-huIgG antibody). The relative binding activity was calculated by referencing each temperature stressed sample to the corresponding, non-stressed sample.
The experiment was performed as described in Example 4, using the monovalent IgG molecules prepared in Example 19.

[7] = molecular target: T1, Human CD3ε stalk-Fc(knob)-Avi/CD3δ …; assay: SPR, monovalent IgG captured by anti-PG antibody, antigen as analyte, 25°C
[8] = molecular target: T1, Human CD3ε stalk-Fc(knob)-Avi/CD3δ …; assay: as above; remark: listed apart in the source
Experimental: (§2) SPR experiments were performed as described in Example 3, with the monovalent IgG molecules prepared in Example 19.
(§3) To analyze the interaction to CD3, IgG molecules were captured for 240 s at 50 nM with a flow rate of 5 μl/min. Human and cynomolgus CD3F stalk-Fc(knob)-Avi/CD36-stalk-Fc(hole) were passed at a concentration of 0.061-250 nM with a flow rate of […] through the flow cells for 300 s. The dissociation was monitored for 800 s.

[9] = molecular target: T2, Cynomolgus CD3ε stalk-Fc(knob)-Avi/CD3δ …; assay: as above
Experimental: as §2, §3

[10] = molecular target: T1, Human CD3ε stalk-Fc(knob)-Avi/CD3δ …; assay: SPR on immobilized human CD3ε/δ after stress, relative to sample kept at -80°C pH 6; remark: listed apart in the source
Experimental: In order to assess the effect of the deamidation site removal and its effect on the stability of the antibodies, the optimized anti-CD3 antibodies (in TCB format) were incubated for 14 days at 37° C., pH 7.4 and at 40° C., pH 6 and further analyzed by SPR for their binding capability to human CD3ε/δ. Samples stored at −80° C. pH 6 were used as reference. The reference samples and the samples stressed at 40° C. were in 20 mM His, 140 mM NaCl, pH 6.0, and the samples stressed at 37° C. in PBS, pH 7.4, all at a concentration of 1.0 mg/ml. After the stress period (14 days) samples in PBS were dialyzed back to 20 mM His, 140 mM NaCl, pH 6.0 for further analysis.
as §1

[11] = molecular target: T1, Human CD3ε stalk-Fc(knob)-Avi/CD3δ …; assay: SPR, TCB captured by anti-PG antibody, antigen as analyte, 25°C; remark: listed apart in the source
Text: (§4) For affinity measurements, TCB molecules were captured on a C1 sensorchip (GE Healthcare) surface with immobilized anti-Fc(P329G) IgG (an antibody that specifically binds human IgG₁ Fc(P329G); “anti-PG antibody”—see WO 2017/072210, incorporated herein by reference). The experimental setup is schematically depicted in FIG. 3. Capture IgG was coupled to the sensorchip surface by direct immobilization of around 400 resonance units (RU) using the standard amine coupling kit (GE Healthcare Life Sciences).
(§5) To analyze the interaction to CD3, TCB molecules were captured for 80 s at 25 nM with a flow rate of 10 μl/min. […] The dissociation was monitored for 800 s.
(§6) Kinetic constants were derived using the Biacore T200 Evaluation Software (GE Healthcare Life Sciences), to fit rate equations for 1:1 Langmuir binding by numerical integration. The half-life (t_{1/2}) of the interaction was calculated using the formula t_{1/2}=ln2/koff.

[12] = molecular target: T2, Cynomolgus CD3ε stalk-Fc(knob)-Avi/CD3δ …; assay: as above; remark: listed apart in the source
Text: as §4, §5, §6

Sequence of human CD3 on cells (CD3ε) (P07766 23-207 limits assumed): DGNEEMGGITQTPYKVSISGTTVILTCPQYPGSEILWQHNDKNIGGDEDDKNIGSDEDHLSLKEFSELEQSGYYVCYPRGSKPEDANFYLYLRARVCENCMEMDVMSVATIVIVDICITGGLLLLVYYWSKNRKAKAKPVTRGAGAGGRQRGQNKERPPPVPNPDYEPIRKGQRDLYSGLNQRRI

B1: CEACAM5-TCB, CEACAM5 CD3 variant P033.078 (bispecific antibody, human IgG1, kappa, L234A L235A)
heavy 1: not shown
heavy 2: QVQLVQSGAEVKKPGSSVKVSCKASGFNIKDTYMHWVRQAPGQGLEWMGRIDPANGNSKYVPKFQGRVTITADTSTSTAYMELSSLRSEDTAVYYCAPFGYYVSDYAMAYWGQGTLVTVSSASTKGPSVFPLAPSSKSTSGGTAALGCLVEDYFPEPVTVSWNSGALTSGVHTFPAVLQSSGLYSLSSVVTVPSSSLGTQTYICNVNHKPSNTKVDEKVEPKSCDKTHTCPPCPAPEAAGGPSVFLFPPKPKDTLMISRTPEVTCVVVDVSHEDPEVKFNWYVDGVEVHNAKTKPREEQYNSTYRVVSVLTVLHQDWLNGKEYKCKVSNKALGAPIEKTISKAKGQPREPQVCTLPPSRDELTKNQVSLSCAVKGFYPSDIAVEWESNGQPENNYKTTPPVLDSDGSFFLVSKLTVDKSRWQQGNVFSCSVMHEALHNHYTQKSLSLSP
light 1: EIVLTQSPATLSLSPGERATLSCRAGESVDIFGVGFLHWYQQKPGQAPRLLIYRASNRATGIPARFSGSGSGTDFTLTISSLEPEDFAVYYCQQTNEDPYTFGQGTKLEIKRTVAAPSVFIFPPSDRKLKSGTASVVCLLNNFYPREAKVQWKVDNALQSGNSQESVTEQDSKDSTYSLSSTLTLSKADYEKHKVYACEVTHQGLSSPVTKSFNRGEC
light 2: EVQLLESGGGLVQPGGSLRLSCAASGFTFESYAMNWVRQAPGKGLEWVSRIRSKYNEYATYYADSVKGRFTISRDDSKNTLYLQMNSLRAEDTAVYYCVRASNFPSSFVSYFGYWGQGTLVTVSSASVAAPSVFIFPPSDEQLKSGTASVVCLLNNFYPREAKVQWKVDNALQSGNSQESVTEQDSKDSTYSLSSTLTLSKADYEKHKVYACEVTHQGLSSPVTKSFNRGEC
notes: 2+1 IgG CrossFab, inverted; human IgG1 Fc, knob-into-hole, PGLALA; also called P033.078 in CEACAM5-TCB format
EC50 24 h (pM), T-cell mediated lysis of CEACAM5-expressing LS180 tumor cells [1]: 58 pM
EC50 48 h (pM), T-cell mediated lysis of CEACAM5-expressing LS180 tumor cells [1]: 36.1 pM
binding activity [%] after 2 weeks at pH 6.0/40°C [2]: 101%
binding activity [%] after 2 weeks at pH 7.4/37°C [2]: 99%
Kd [3]: 0.562 nM
koff [3]: 0.000886 s⁻¹
kon [3]: 1.59e+06 M⁻¹ s⁻¹
t1/2 [3]: 13 min
Kd [4]: 0.324 nM
koff [4]: 0.000675 s⁻¹
kon [4]: 2.08e+06 M⁻¹ s⁻¹
t1/2 [4]: 17.1 min
fold higher binding half-life than CD3orig [5]: > 3 fold

B2: anti-CD3 antibody clone P033.078 in monovalent IgG format (antibody)
heavy: not shown
chain: DKTHTCPPCPAPEAAGGPSVFLFPPKPKDTLMISRTPEVTCVVVDVSHEDPEVKFNWYVDGVEVHNAKTKPREEQYNSTYRVVSVLTVLHQDWLNGKEYKCKVSNKALGAPIEKTISKAKGQPREPQVCTLPPSRDELTKNQVSLSCAVKGFYPSDIAVEWESNGQPENNYKTTPPVLDSDGSFFLVSKLTVDKSRWQQGNVFSCSVMHEALHNHYTQKSLSLSP
light: EVQLLESGGGLVQPGGSLRLSCAASGFTFESYAMNWVRQAPGKGLEWVSRIRSKYNEYATYYADSVKGRFTISRDDSKNTLYLQMNSLRAEDTAVYYCVRASNFPSSFVSYFGYWGQGTLVTVSSASVAAPSVFIFPPSDEQLKSGTASVVCLLNNFYPREAKVQWKVDNALQSGNSQESVTEQDSKDSTYSLSSTLTLSKADYEKHKVYACEVTHQGLSSPVTKSFNRGEC
notes: also called monovalent IgG P033.078
binding activity [%] after 2 weeks at pH 6.0/40°C [6]: 98%
binding activity [%] after 2 weeks at pH 7.4/37°C [6]: 95%
fold higher binding half-life than CD3orig [7]: > 2 fold
Kd [8]: 0.771 nM
koff [8]: 0.00133 s⁻¹
kon [8]: 1.73e+06 M⁻¹ s⁻¹
t1/2 [8]: 8.69 min
Kd [9]: 0.403 nM
koff [9]: 0.00104 s⁻¹
kon [9]: 2.6e+06 M⁻¹ s⁻¹
t1/2 [9]: 11.1 min

B3: TYRP1-TCB with anti-CD3 antibody clone P033.078 (bispecific antibody, human IgG1, kappa, L234A L235A)
heavy 1: not shown
heavy 2: QVQLVQSGAEVKKPGASVKVSCKASGFNIKDYFLHWVRQAPGQGLEWMGWINPDNGNTVYAQKFQGRVTMTADTSTSTVYMELSSLRSEDTAVYYCTRRDYTYEKAALDYWGQGTLVTVSSASTKGPSVFPLAPSSKSTSGGTAALGCLVEDYFPEPVTVSWNSGALTSGVHTFPAVLQSSGLYSLSSVVTVPSSSLGTQTYICNVNHKPSNTKVDEKVEPKSCDKTHTCPPCPAPEAAGGPSVFLFPPKPKDTLMISRTPEVTCVVVDVSHEDPEVKFNWYVDGVEVHNAKTKPREEQYNSTYRVVSVLTVLHQDWLNGKEYKCKVSNKALGAPIEKTISKAKGQPREPQVCTLPPSRDELTKNQVSLSCAVKGFYPSDIAVEWESNGQPENNYKTTPPVLDSDGSFFLVSKLTVDKSRWQQGNVFSCSVMHEALHNHYTQKSLSLSP
light 1: DIQMTQSPSSLSASVGDRVTITCRASGNIYNYLAWYQQKPGKVPKLLIYDAKTLADGVPSRFSGSGSGTDFTLTISSLQPEDVATYYCQHFWSLPFTFGQGTKLEIKRTVAAPSVFIFPPSDRKLKSGTASVVCLLNNFYPREAKVQWKVDNALQSGNSQESVTEQDSKDSTYSLSSTLTLSKADYEKHKVYACEVTHQGLSSPVTKSFNRGEC
light 2: EVQLLESGGGLVQPGGSLRLSCAASGFTFESYAMNWVRQAPGKGLEWVSRIRSKYNEYATYYADSVKGRFTISRDDSKNTLYLQMNSLRAEDTAVYYCVRASNFPSSFVSYFGYWGQGTLVTVSSASVAAPSVFIFPPSDEQLKSGTASVVCLLNNFYPREAKVQWKVDNALQSGNSQESVTEQDSKDSTYSLSSTLTLSKADYEKHKVYACEVTHQGLSSPVTKSFNRGEC
notes: human IgG1 Fc, knob-into-hole, P329G L234A L235A; also called P033.078 in TCB format
binding activity [%] after 2 weeks at pH 6.0/40°C [10]: 99%
binding activity [%] after 2 weeks at pH 7.4/37°C [10]: 99%
fold higher binding half-life than CD3orig [5]: ≤ 6 fold
Kd [11]: 0.6 nM
koff [11]: 0.000996 s⁻¹
kon [11]: 1.66e+06 M⁻¹ s⁻¹
t1/2 [11]: 11.6 min
Kd [12]: 0.37 nM
koff [12]: 0.000802 s⁻¹
kon [12]: 2.2e+06 M⁻¹ s⁻¹
t1/2 [12]: 14.4 min
